Source: patent publication US8394929B2, “Nogo receptor-mediated blockade of axonal growth” (Yale University, priority 2000, dated 2013)
Each block holds one molecule with its values, some of them ahead of it.

Assays:
[1] = test system: CNS myelin induced growth cone collapse; experiment: Blockade of CNS myelin induced growth cone collapse in chick DRG cultures; assay type: cell-based
Protocol: In the growth cone collapse assay, the response to Nogo was measured in the presence of various potential antagonistic peptides. […] This blockade supports the hypothesis that Nogo is a primary inhibitory component of CNS myelin.
To determine the antagonistic activity of Peptide 140 against CNS myelin, the above synthetic peptide was added approximately 10 min before application of CNS myelin. 30 min later, cultures were fixed and growth cone collapse was assessed following staining with rhodamine-phalloidin. For neurite outgrowth assays, plastic chamber slide were coated with 100 μg ml^−1 poly-L-lysine, washed, and dried. 3 μl drops of PBS containing CNS myelin were spotted and dried. Slides were then rinsed and coated with 10 μg ml fs24^−1 laminin before addition of dissociated E12 chick DRGs. Peptide 140, or the scrambled version of Peptide 140, was added at the time of cell plating. Cultures were grown for 5-7 h after which neurite outgrowth was assessed.

[2] = test system: chick E7 retinal ganglion cells; experiment: Growth cone collapse in uninfected chick E7 retinal ganglion cells; assay type: cell-based; conditions: neurons lacking the Nogo-66 receptor
Excerpt: (§1) Both dorsal root ganglion and retinal neurons from E7 chick embryos were examined. The Nogo responses in the dorsal root ganglion neurons from this developmental stage are weak but slight responses can be detected in some cultures (data not shown).
For some receptor systems, such soluble receptor ligand complexes can block signaling by creating an ineffective interaction. For example, the soluble ectodomain of Trk serves to block neurotrophin signaling and has been extensively used for this purpose (Shelton et al., (1995) J. Neurosci. 15, 477-491). Alternatively, the Nogo-66/NgR-ecto soluble complex may bind to and stimulate the presumed second transmembrane NgR subunit. There is precedence for this type of effect from studies of GDNF family receptors (Cacalano et al., (1998) Neuron 21, 53-62).

[3] = target: T1, NgRL1 chimeric receptor (Mus musculus, UniProt P11627+Q99PI8); experiment: Growth cone collapse in E7 retinal ganglion cells infected with NgRL1; assay type: cell-based
T1 construct: L1NgR encodes residues 1-451 of mouse NgR fused to the transmembrane and cytoplasmic tail of mouse L1; expressed in transfected cells; host or cells: chick E7 retinal ganglion cells infected with recombinant HSVL1NgR
T1 sequence (Q99PI8+P11627 fused, change not shown): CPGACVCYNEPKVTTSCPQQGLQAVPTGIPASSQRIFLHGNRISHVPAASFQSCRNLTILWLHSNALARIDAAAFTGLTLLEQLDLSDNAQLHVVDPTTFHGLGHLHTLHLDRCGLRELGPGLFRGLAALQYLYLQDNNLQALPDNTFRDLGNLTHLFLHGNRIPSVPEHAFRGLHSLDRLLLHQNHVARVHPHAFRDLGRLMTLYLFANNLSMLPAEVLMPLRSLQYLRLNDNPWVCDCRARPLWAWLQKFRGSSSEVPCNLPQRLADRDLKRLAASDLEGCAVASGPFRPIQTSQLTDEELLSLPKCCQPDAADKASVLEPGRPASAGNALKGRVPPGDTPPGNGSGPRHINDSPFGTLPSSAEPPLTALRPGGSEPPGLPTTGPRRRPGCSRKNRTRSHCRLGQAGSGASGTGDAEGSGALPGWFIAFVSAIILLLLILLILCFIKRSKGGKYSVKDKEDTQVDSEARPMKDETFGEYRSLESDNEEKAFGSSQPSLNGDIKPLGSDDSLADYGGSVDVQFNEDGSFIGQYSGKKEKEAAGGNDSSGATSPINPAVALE
Protocol: (§2) Growth cone collapse in response to GST-hNogo-A (1055-1120) was investigated in infected RGC cultures. Retinal explants infected with recombinant viral preparations of PlexinA1 (PlexA1), wild-type NgR (wtNgR), NgRL1 chimeric receptor in which the GPI domain has been replaced by the transmembrane region and cytoplasmic tail from the mouse adhesion protein L1 (NgRL1), or NgR carboxy terminal deletion mutant (NgRΔCT) for 12 hr. Following infection, the cells were treated for 30 min with 0, 50, 250, or 500 nM GST-hNogo-A (1055-1120) (GrandPre et al., Nature 403: 439-444, 2000), fixed with 4% paraformaldehyde with 0.1 M PO4 and 20% sucrose, and stained with phalloidin. […] Cells infected with NgRΔCT were insensitive to GST-hNogo-A (1055-1120). The CT region of NgR is therefore required for effective NgR inhibitory signaling.
To test the signaling capability of NgRLI, recombinant HSVL1NgR preparations were produced and used to infect E7 RGCs. Infected RGCs were treated with GST-hNogo-A (1055-1120) and growth cone collapse was assessed (FIG. 20). […] Because the intracellular signals induced by Nogo have not been elucidated, it remains to be determined if ligand binding effects signaling events at caveolar microdomains.

[4] = test system: PlexinA1 (PlexA1); experiment: Growth cone collapse in E7 retinal ganglion cells infected with control HSV PlexinA1; assay type: cell-based
Excerpt: as §1, §2

[5] = target: T2, NgRΔCT (Mus musculus, UniProt Q99PI8); experiment: AP-hNogo-A (1055-1120) binding to COS-7 cells transfected with NgRΔCT
T2 construct: encodes residues 26 to 305 and 443 to473 of mNgR; vector secretion signal (pSecTag2) (N); 6xHis (C); expressed in transfected cells; host or cells: COS-7
T2 sequence (Q99PI8 with tags, fused parts or gaps): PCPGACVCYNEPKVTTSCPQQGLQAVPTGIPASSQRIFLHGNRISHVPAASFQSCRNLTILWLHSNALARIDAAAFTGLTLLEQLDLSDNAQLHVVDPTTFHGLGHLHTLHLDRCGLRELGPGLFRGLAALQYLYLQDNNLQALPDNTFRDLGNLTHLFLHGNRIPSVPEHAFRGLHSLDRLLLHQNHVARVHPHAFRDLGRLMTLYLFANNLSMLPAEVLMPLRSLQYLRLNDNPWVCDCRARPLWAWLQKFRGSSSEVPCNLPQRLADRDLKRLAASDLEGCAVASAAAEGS
Excerpt: The NgRΔCT contruct encodes residues 26 to 305 and 443 to473 of mNgR, thereby including the LRR and GPI regions of mNgR. Primers MycNgR ([…]) and 2NgRt313 ([…]) were used to amplify a sequence from the wtNgR-pSecTag2Hygro plasmid. Primers TM/GPI5 (5′-[…]-3′) and NgR3X (above) were used to amplify a sequence from the wtNgR-pSecTag2Hygro plasmid. The amplified sequences were ligated together at the NotI site and then ligated into the BamHI/XhoI sites of pSecTag2.
To determine whether mNgR or mNgR deletion mutants bound to hNogo-A (1055-1120), wtNgR or mNgR deletion mutants were transfected into COS-7 cells. Forty-eight hours after the transfection, the transfected COS-7 cells were washed with hanks balanced salt solution containing 20 mM sodium HEPES, pH 7.05, and 1 mg/ml bovine serum albumin (BSA) [hereinafter “HBH”]. Cells were then incubated for 2 hours at 23° C. with a conditioned medium enriched with purified AP-hNogo-A (1055-1120) diluted in HBH. AP-fusion protein was detected as previously described for AP-Sema3A (Takahashi et al., Nature Neurosci. 1:487-493, 1998).

Molecule: Peptide 140: synthetic peptide of amino acids #1055-1094 of the human NogoA protein, acetylated and amidated at the termini (Ac-RIYKGVIQAIQKSDEGHPFRAYLESEVAISEELVQKYSNS-NH2; UniProt Q9NQC3 1055-1094, looked up, fragment)
blockade of CNS myelin induced growth cone collapse (in words) ([1]; high doses / higher concentrations of CNS myelin): had no effect on inhibitory activity
blockade of CNS myelin induced growth cone collapse (in words) ([1]; low dose / lowest concentrations of CNS myelin): reduces myelin induced growth cone collapse to control levels

growth cone collapse response (in words) ([3]; 50 nM GST-hNogo-A (1055-1120)): not responsive
B1: GST-Nogo: GST fusion protein of the 66 amino acid lumenal-extracellular fragment of Nogo-A, expressed in E. coli (protein)
chain: RIYKGVIQAIQKSDEGHPFRAYLESEVAISEELVQKYSNSALGHVNCTIKELRRLFLVDDLVDSLK
modifications: also: GST fusion protein
notes: GST fusion protein of the 66 amino acid lumenal-extracellular fragment of Nogo-A, expressed in E. coli
growth cone collapse (in words) [2]: uniformly insensitive
growth cone collapse response (in words) ([3]; high concentrations of GST-hNogo-A (1055-1120)): transduces Nogo signals as efficiently as wtNgR
growth cone collapse response (in words) ([4]; listed as GST-hNogo-A (1055-1120)): did not respond
growth cone collapse response (in words) ([4]; listed as Nogo-66): does not alter Nogo responses

B2: AP-Nogo: fusion protein of His6 tag, placental alkaline phosphatase (AP) and the 66 amino acid active domain of Nogo (protein)
chain: HHHHHHIIPVEEENPDFWNREAAEALGAAKKLQPAQTAAKNLIIFLGDGMGVSTVTAARILKGQKKDKLGPEIPLAMDRFPYVALSKTYNVDKHVPDSGATATAYLCGVKGNFQTIGLSAAARFNQCNTTRGNEVISVMNRAKKAGKSVGVVTTTRVQHASPAGTYAHTVNRNWYSDADVPASARQEGCQDIATQLISNMDIDVILGGGRKYMFRMGTPDPEYPDDYSQGGTRLDGKNLVQEWLAKRQGARYVWNRTELMQASLDPSVTHLMGLFEPGDMKYEIHRDSTLDPSLMEMTEAALRLLSRNPRGFFLFVEGGRIDHGHHESRAYRALTETIMFDDAIERAGQLTSEEDTLSLVTADHSHVFSFGGYPLRGSSIFGLAPGKARDRKAYTVLLYGNGPGYVLKDGARPDVTESESGSPEYRQQSAVPLDEETHAGEDVAVFARGPQAHLVHGVQEQTFIAHVMAFAACLEPYTACDLAPPAGTTDAAHPGRIYKGVIQAIQKSDEGHPFRAYLESEVAISEELVQKYSNSALGHVNCTIKELRRLFLVDDLVDSLK
binding (in words) [5]: bound
